# Positions count from the first letter of the chain named. Numbers in names are those of the source.
# B1: SmcR wild-type, untagged (Vibrio vulnificus quorum-sensing transcription factor) (natural protein)
# chain: MDSIAKRPRTRLSPLKRKQQLMEIALEVFARRGIGRGGHADIAEIAQVSVATVFNYFPTREDLVDEVLNHVVRQFSNFLSDNIDLDLHAKENIANITNAMIELVVQDNHWLKVWFEWSASTRDEVWPLFVTTNRTNQLLVQNMFIKAIERGEVCDQHNPEDLANLFHGICYSLFVQANRTNNTAELSKLVSSYLDMLCIYKREHE
# B2: SmcR N55I, untagged (natural protein)
# chain: B1 chain with N55I
# B3: PluxC site E (site D mutated) (dsDNA)
# DNA 1: TTTGTTAAATGTTGCGCGTAATTATAAATAAATCAAACTATAATTAGATT
# DNA 2: AATCTAATTATAGTTTGATTTATTTATAATTACGCGCAACATTTAACAAA
# B4: PluxC site B (JDN55/JDN54) (dsDNA)
# DNA 1: TTACTTATTTATAGTGTTACAAATAACATTA
# DNA 2: TAATGTTATTTGTAACACTATAAATAAGTAA
# B5: PluxC site D (site E mutated) (dsDNA)
# DNA 1: TTTGTTAAATGTTATGACTAATTATAAATAAATCAAACGCGCGTTAGATT
# DNA 2: AATCTAACGCGCGTTTGATTTATTTATAATTAGTCATAACATTTAACAAA
# How the values were obtained:
# [1] = target: V. harveyi His-RNAP alpha (RNA polymerase alpha subunit) (Vibrio harveyi, UniProt A0A0B4IMU9 1-330); assay: BLI
# SmcR WT = target: T1, SmcR WT (Vibrio vulnificus, UniProt Q9L8G8 1-205); assay: EMSA
# T1 sequence: B1 chain
# SmcR N55I = target: T2, SmcR N55I (Vibrio vulnificus, UniProt Q9L8G8 1-205, N55I); assay: EMSA
# T2 sequence: B1 chain with N55I
Binder,Kd [1] [nM],binding result (SmcR WT),binding result (SmcR N55I)
B1,142,,
B2,160,,
B3,,binds,
B4,,binds,binds
B5,,binds,
